For one substance, Kd results are on record in publication PMC7614769.

The assay addresses human FcμR ectodomain (human) (UniProt O60667). The assay is described as follows: BLI; FcμR (20 μg/ml) captured on AMC (anti-mouse IgG-Fc capture) biosensors by the anti-FcμR antibody RR-16; full-length or proteolysed IgM 0.08-10 nM in solution; PBS, 0.005% Tween 20, 25 °C; apparent Kd from response against IgM concentration, 1:1 binding model.

Where “and” joins values, the source holds several entries; their conditions need not be identical. Equal entries are not always repeated.

Full-length IgM (myeloma), pentamer with J chain, sequence (P01591 whole entry, looked up): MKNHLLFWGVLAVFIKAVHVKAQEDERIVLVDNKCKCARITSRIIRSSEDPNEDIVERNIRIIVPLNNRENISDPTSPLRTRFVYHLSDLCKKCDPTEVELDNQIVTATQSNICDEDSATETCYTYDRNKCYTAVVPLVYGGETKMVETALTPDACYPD
human FcμR ectodomain (human), sequence (O60667 17-251): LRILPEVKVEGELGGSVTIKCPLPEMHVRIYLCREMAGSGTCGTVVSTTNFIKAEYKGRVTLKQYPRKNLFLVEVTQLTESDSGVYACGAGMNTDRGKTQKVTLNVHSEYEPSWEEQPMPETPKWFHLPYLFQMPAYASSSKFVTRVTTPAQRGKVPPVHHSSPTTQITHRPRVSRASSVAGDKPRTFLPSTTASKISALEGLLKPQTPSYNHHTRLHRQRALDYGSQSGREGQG

In the case of “Full-length IgM (myeloma), pentamer with J chain (from UniProt P01591 23-159) (antibody)”, the Kd is 0.3 nM and 0.4 nM.
